Key:
[1] = biological target: CraCRY Y373R (Chlamydomonas reinhardtii); assay: SEC; time-lapse dimerization under blue light (450 nm, 100 W/m^2); 6 mg/mL in HEPES pH 7.4, 150 mM NaCl; Superdex 200 Increase 10/300, room temperature, in darkness; dimer fraction from peak areas
[2] = biological target: GST-fused ROC15 (GARP), the active domain of Rhythm Of Clock 15; assay: GST pull-down, SDS-PAGE band intensity ratio; conditions: absence of reducing agents, read off a plot
[3] = biological target: CraCRY Y373E (Chlamydomonas reinhardtii); assay: SEC; time-lapse dimerization under blue light (450 nm, 100 W/m^2); 6 mg/mL in HEPES pH 7.4, 150 mM NaCl; Superdex 200 Increase 10/300, room temperature, in darkness; dimer fraction from peak areas
[4] = biological target: Chlamydomonas reinhardtii animal-like cryptochrome (CraCRY), wild type (Chlamydomonas reinhardtii); assay: SEC; dimer peak collected from SEC, kept in the dark, second round of SEC
[5] = biological target: Chlamydomonas reinhardtii animal-like cryptochrome (CraCRY), wild type (Chlamydomonas reinhardtii); assay: SEC; concentration series, blue light 4 min; HEPES pH 7.4, 150 mM NaCl; Superdex 200 Increase 10/300, room temperature, in darkness; dimer fraction from peak areas
[6] = lit (blue light), parent: est. 0.15

CraCRY Y373R (natural protein)
dimer fraction (percent of elution peak area) [1]: 50%

Chlamydomonas reinhardtii animal-like cryptochrome (CraCRY), wild type Y373W
response ([2]; dark, parent: est. 0.03): 0.045 | response [2, 6]: 0.85

CraCRY Y373E (natural protein)
dimer fraction (percent of elution peak area) [3]: 50%

Chlamydomonas reinhardtii animal-like cryptochrome (CraCRY), wild type (natural protein)
stoichiometry N [4]: 2 | dimer fraction (percent of elution peak area) [5]: 20%

Chlamydomonas reinhardtii animal-like cryptochrome (CraCRY), wild type Y373W; N395C
response ([2]; dark, parent: est. 0.03): 0.05 | response [2, 6]: 0.58

— PMC12723161
